{"source": "paper PMC5047623", "about": "(PLoS ONE, 2016)", "molecular_target": "T1, purified α5ß1 ectodomain protein (human, UniProt P08648 42-995; P05556 21-728)", "T1 construct": "signal peptide in the construct; human integrin alpha-5, residues 1-995; human integrin beta-1, residues 1-728; Thrombin cleavage site between the integrin and the Fc; residues of the site may remain; also called purified and untagged α5ß1; α5ß1 integrin; not shown: Fc, C-terminal, cleaved", "T1 sequence (P08648 42-995, chain 1 of 2)": "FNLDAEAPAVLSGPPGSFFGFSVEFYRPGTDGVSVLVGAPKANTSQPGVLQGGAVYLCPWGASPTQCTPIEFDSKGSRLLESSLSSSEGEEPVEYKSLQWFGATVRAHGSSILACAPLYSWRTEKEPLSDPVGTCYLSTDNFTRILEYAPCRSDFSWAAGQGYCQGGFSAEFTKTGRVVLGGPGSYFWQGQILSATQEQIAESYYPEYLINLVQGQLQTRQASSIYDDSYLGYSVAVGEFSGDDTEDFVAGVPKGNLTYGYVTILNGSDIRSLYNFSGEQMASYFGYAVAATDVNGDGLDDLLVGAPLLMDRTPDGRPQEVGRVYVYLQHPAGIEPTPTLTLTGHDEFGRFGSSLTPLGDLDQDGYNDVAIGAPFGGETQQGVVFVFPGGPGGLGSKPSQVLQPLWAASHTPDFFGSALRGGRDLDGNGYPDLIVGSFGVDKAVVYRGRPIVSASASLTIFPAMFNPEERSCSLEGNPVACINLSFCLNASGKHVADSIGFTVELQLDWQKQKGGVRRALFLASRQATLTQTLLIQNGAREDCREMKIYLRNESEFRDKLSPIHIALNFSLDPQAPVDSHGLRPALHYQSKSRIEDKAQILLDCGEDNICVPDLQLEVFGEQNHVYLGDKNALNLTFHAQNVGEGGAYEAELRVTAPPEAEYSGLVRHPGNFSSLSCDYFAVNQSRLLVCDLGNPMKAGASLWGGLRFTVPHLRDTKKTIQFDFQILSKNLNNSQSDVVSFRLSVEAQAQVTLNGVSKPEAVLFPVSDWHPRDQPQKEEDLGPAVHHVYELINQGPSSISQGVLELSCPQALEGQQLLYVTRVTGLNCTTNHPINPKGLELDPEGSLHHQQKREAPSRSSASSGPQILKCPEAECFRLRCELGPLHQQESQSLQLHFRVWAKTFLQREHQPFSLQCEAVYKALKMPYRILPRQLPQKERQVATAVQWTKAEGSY", "T1 sequence (P05556 21-728, chain 2 of 2)": "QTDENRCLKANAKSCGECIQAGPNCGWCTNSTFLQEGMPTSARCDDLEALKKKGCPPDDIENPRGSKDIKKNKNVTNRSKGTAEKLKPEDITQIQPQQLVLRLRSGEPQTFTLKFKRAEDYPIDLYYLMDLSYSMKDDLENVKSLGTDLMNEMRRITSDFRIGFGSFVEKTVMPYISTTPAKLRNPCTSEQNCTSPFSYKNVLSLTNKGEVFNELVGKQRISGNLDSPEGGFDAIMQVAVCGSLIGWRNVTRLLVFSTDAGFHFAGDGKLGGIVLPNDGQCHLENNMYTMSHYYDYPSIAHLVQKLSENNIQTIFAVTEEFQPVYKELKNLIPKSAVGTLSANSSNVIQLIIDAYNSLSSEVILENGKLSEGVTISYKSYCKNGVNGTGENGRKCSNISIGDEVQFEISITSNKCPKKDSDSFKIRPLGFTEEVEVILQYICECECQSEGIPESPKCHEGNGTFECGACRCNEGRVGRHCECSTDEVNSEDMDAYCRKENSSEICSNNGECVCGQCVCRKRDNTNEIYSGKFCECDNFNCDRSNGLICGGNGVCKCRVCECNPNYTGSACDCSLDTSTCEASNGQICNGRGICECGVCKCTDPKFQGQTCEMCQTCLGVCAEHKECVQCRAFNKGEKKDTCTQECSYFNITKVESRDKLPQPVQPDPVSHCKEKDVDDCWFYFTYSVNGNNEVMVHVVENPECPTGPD", "test": "SPR; ProteOn XPR36, GLC chip; rhTie1 (4750 RU) and rhTie2 (6400 RU) amine-coupled; α5ß1 at 3 μM flowed at 60 μL/min for 3 min; 25 degrees Celsius; 20 mM Tris, 100 mM NaCl, 1 mM MnCl2, 2 mM CaCl2 pH 7.5; BSA channel subtracted", "details": "both partners purified"}
{"binder": "recombinant human Tie1 (rhTie1) extracellular domain, Fc tagged (Fc fusion, UniProt P35590 22-759, looked up, human Tie1, full extracellular domain; amine-coupled to a GLC sensor chip; also called immobilized Tie1) AVDLTLLANLRLTDPQRFFLTCVSGEAGAGRGSDAWGPPLLLEKDDRIVRTPPGPPLRLARNGSHQVTLRGFSKPSDLVGVFSCVGGAGARRTRVIYVHNSPGAHLLPDKVTHTVNKGDTAVLSARVHKEKQTDVIWKSNGSYFYTLDWHEAQDGRFLLQLPNVQPPSSGIYSATYLEASPLGSAFFRLIVRGCGAGRWGPGCTKECPGCLHGGVCHDHDGECVCPPGFTGTRCEQACREGRFGQSCQEQCPGISGCRGLTFCLPDPYGCSCGSGWRGSQCQEACAPGHFGADCRLQCQCQNGGTCDRFSGCVCPSGWHGVHCEKSDRIPQILNMASELEFNLETMPRINCAAAGNPFPVRGSIELRKPDGTVLLSTKAIVEPEKTTAEFEVPRLVLADSGFWECRVSTSGGQDSRRFKVNVKVPPVPLAAPRLLTKQSRQLVVSPLVSFSGDGPISTVRLHYRPQDSTMDWSTIVVDPSENVTLMNLRPKTGYSVRVQLSRPGEGGEGAWGPPTLMTTDCPEPLLQPWLEGWHVEGTDRLRVSWSLPLVPGPLVGDGFLLRLWDGTRGQERRENVSSPQARTALLTGLTPGTHYQLDVQLYHCTLLGPASPPAHVLLPPSGPPAPRHLHAQALSDSEIQLTWKHPEALPGPISKYVVEVQVAGGAGDPLWIDVDRPEETSTIIRGLNASTRYLFRMRASIQGLGDWSNTVEESTLGNGLQAEGPVQESRAAEEGLDQ", "values": [{"measurement": "binding result", "value": "binds"}]}
